Blank lines part the entries; values can stand above or below the substance they belong to.
How the values were obtained:
[1] = target: cynomolgus TIM-3 on isolated cyno CD14+ monocytes (cynomolgus); test: flow cytometry, cyno CD14+ monocytes cyno1
[2] = target: cynomolgus TIM-3 on isolated cyno CD14+ monocytes (cynomolgus); test: flow cytometry, cyno CD14+ monocytes cyno2
[3] = target: cynomolgus TIM-3 on isolated cyno CD14+ monocytes (cynomolgus); test: flow cytometry, cyno CD14+ monocytes cyno3
[4] = target: human TIM-3 on cells (human) (UniProt Q8TDQ0); test: flow cytometry, human CD14+ monocytes donor1
[5] = target: human TIM-3 on cells (human) (UniProt Q8TDQ0); test: flow cytometry, human CD14+ monocytes donor2
[6] = target: human TIM-3 on cells (human) (UniProt Q8TDQ0); test: flow cytometry, human CD14+ monocytes donor3
[7] = target: human TIM-3 on cells (human) (UniProt Q8TDQ0); test: FACS competition on RPMI-8226, competitor TIM3-0016
[8] = target: human TIM-3 on cells (human) (UniProt Q8TDQ0); test: FACS competition on RPMI-8226, competitor TIM3-0018
[9] = target: human TIM-3 on cells (human) (UniProt Q8TDQ0); test: FACS competition on RPMI-8226, competitor TIM3-0026
[10] = target: human TIM-3 on cells (human) (UniProt Q8TDQ0); test: FACS competition on RPMI-8226, competitor TIM3-0038
[11] = target: cynomolgus Tim3 (ELISA) (cynomolgus); test: ELISA, cyno Tim3
cynomolgus Tim3 (ELISA) (cynomolgus), sequence (chain, as listed by the source, form in doubt): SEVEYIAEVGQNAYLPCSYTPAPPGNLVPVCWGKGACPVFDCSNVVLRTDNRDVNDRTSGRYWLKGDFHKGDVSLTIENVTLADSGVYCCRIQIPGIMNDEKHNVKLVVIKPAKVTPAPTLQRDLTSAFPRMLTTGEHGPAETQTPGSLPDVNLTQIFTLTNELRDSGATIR

[12] = target: Tim3-ECD-His-Biotin (human) (UniProt Q8TDQ0); test: ELISA, human Tim3
[13] = target: human TIM-3 on cells (human) (UniProt Q8TDQ0); test: cell ELISA, CHO-Tim3
[14] = target: human TIM-3 on cells (human) (UniProt Q8TDQ0); test: cell-based or functional assay
[15] = target: huFc fused dimeric human Tim3-ECD (human) (UniProt Q8TDQ0); test: SPR Biacore, antibody captured by anti-mouse IgG
[16] = target: monomeric cyno Tim3-ECD (cynomolgus); test: SPR Biacore, antibody captured by anti-mouse IgG
monomeric cyno Tim3-ECD (cynomolgus), sequence (chain, as listed by the source, form in doubt): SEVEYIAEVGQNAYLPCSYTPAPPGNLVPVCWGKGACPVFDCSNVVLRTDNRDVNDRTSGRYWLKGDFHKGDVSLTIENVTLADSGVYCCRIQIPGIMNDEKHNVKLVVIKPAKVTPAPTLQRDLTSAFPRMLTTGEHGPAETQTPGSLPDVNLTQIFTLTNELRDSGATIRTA

[17] = target: monomeric human Tim3-ECD (human) (UniProt Q8TDQ0); test: SPR Biacore, antibody captured by anti-mouse IgG
[18] = target: human TIM-3 on cells (human) (UniProt Q8TDQ0); test: FACS competition on RPMI-8226, competitor TIM3-0022
[19] = target: human TIM-3 on cells (human) (UniProt Q8TDQ0); test: FACS competition on RPMI-8226, competitor TIM3-0028
[20] = target: cynomolgus Tim3 (ELISA) (cynomolgus); test: ELISA, cyno Tim3; EC50 relative to the sample's max value
[21] = target: Tim3-ECD-His-Biotin (human) (UniProt Q8TDQ0); test: ELISA, human Tim3; EC50 relative to the sample's max value
[22] = target: human TIM-3 on cells (human) (UniProt Q8TDQ0); test: cell ELISA, CHO-Tim3; EC50 relative to the sample's max value

Substance: M-IgG1 (isotype control) (antibody)
- MFI [1]: 72 MFI
- MFI [2]: 82 MFI
- MFI [3]: 83 MFI
- specific binding MFI [4]: 144 MFI
- specific binding MFI [5]: 55 MFI
- specific binding MFI [6]: 213 MFI

Substance: M-IgG2b (isotype control) (antibody)
- specific binding MFI [4]: 0 MFI
- specific binding MFI [5]: 13 MFI
- specific binding MFI [6]: 0 MFI

Substance: Rat-IgG2A (isotype control) (antibody)
- MFI [1]: 84 MFI
- MFI [2]: 86 MFI
- MFI [3]: 91 MFI
- specific binding MFI [4]: 71 MFI
- specific binding MFI [5]: 68 MFI
- specific binding MFI [6]: 70 MFI

The next lines start with the values.

- MFI [1]: 158 MFI
- MFI [2]: 121 MFI
- MFI [3]: 143 MFI
- specific binding MFI [4]: 1010 MFI
- specific binding MFI [5]: 917 MFI
- specific binding MFI [6]: 814 MFI
- Max % inhibition of binding [7]: 0%
- Max % inhibition of binding [8]: 0%
- Max % inhibition of binding [9]: 3%
- Max % inhibition of binding [10]: 99%
Substance: anti-TIM3 reference antibody 344823 (R&D Systems)

- inflexion point [11]: 210000 ng/mL
- inflexion point [12]: 86.3 ng/mL
- inflexion point [13]: 224 ng/mL
- IFN-gamma release in MLR at 1 µg/ml, % of IL-2 control [14]: 7%
- IFN-gamma release in MLR at 10 µg/ml, % of IL-2 control [14]: 26%
- IFN-gamma release in MLR at 40 µg/ml, % of IL-2 control [14]: 36%
- MFI [1]: 135 MFI
- MFI [2]: 136 MFI
- MFI [3]: 124 MFI
- specific binding MFI [4]: 516 MFI
- specific binding MFI [5]: 493 MFI
- specific binding MFI [6]: 460 MFI
- Kd [15]: 7.5 nM
- Kd [16]: 168 nM
- Kd [17]: 13.6 nM
- Max % inhibition of binding [7]: -7%
- Max % inhibition of binding [8]: -6%
- Max % inhibition of binding [18]: 77%
- Max % inhibition of binding [9]: 2%
- Max % inhibition of binding [19]: 75%
- Max % inhibition of binding [10]: 94%
- EC50 [20]: 0.423 µg/mL
- EC50 [21]: 0.0732 µg/mL
- EC50 [22]: 0.35 µg/mL
Substance: anti-TIM3 reference antibody F38-2E2 (BioLegend)
